Measured values from patent US20180030144A1 (INNATE PHARMA, published 2018).
Numbering of substitutions follows the chain as printed. Names may count otherwise.

Tests used:
Experiment in all cases: flow cytometry, HEK293T transfectants
human CD73 mutant 16 = molecular target: T1, human CD73 mutant 16 (human, UniProt P21589 27-549)
T1 construct: Transfected in HEK293T cells
T1 chain: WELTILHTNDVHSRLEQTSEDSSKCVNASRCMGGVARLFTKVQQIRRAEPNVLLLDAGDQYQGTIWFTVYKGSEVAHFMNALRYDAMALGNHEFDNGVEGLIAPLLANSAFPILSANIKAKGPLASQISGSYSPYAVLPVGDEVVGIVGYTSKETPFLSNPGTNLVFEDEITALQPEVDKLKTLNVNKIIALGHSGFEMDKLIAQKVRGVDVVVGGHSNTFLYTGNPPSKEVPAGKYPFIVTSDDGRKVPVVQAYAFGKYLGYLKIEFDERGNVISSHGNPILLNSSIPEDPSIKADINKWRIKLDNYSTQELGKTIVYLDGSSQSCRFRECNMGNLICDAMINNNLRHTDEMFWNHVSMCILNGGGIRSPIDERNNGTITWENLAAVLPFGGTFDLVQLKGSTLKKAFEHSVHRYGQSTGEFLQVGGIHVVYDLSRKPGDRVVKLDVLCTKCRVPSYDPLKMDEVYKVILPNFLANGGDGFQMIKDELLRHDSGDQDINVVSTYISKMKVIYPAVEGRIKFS

human CD73 mutant 18 = molecular target: T2, human CD73 mutant 18 (human, UniProt P21589 27-549)
T2 construct: Transfected in HEK293T cells
T2 chain: T1 chain with A81S, R83A

human CD73 mutant 19 = molecular target: T3, human CD73 mutant 19 (human, UniProt P21589 27-549)
T3 construct: Transfected in HEK293T cells
T3 chain: T1 chain with S126A, S129A

human CD73 mutant 21 = molecular target: T4, human CD73 mutant 21 (human, UniProt P21589 27-549)
T4 construct: Transfected in HEK293T cells
T4 chain: T1 chain with K71A, E99A, A110K, Q127A, S131L, S133L, A136K

human CD73 mutant 22 = molecular target: T5, human CD73 mutant 22 (human, UniProt P21589 27-549)
T5 construct: Transfected in HEK293T cells
T5 chain: T1 chain with K71A, E99A, A110K, S131L, S133L, A136K, K304A

Measured: binding result

B1: antibody 11E1 (antibody, human IgG1, V domains shown)
VH: EIQLQQSGPELVKPGASVKVSCKASGYAFTSYNMYWVKQSHGKSLEWIGYIDPYNGGTSYNQKFKGKATLTVDKSSSTAYMHLNSLTSEDSAVYYCARGYGNYKAWFAYWGQGTLVTVSA
VL: DAVMTQTPKFLLVSAGDRVTITCKASQSVTNDVAWYQQKPGQSPKLLIYYASNRYTGVPDRFTGSGYGTDFTFTISTVQAEDLAVYFCQQDYSSLTFGAGTKLELK
notes: Produced as chimeric human IgG1 with heavy chain N297Q (Kabat EU numbering); also called 1E11
no binding: all assays above

B2: antibody 6E1 (antibody, human IgG1, V domains shown)
VH: B1 VH with I2F, S44R, T58S, S85N, G101N
VL: B1 VL with D1S, A2I, V78M
notes: Produced as chimeric human IgG1 with heavy chain N297Q (Kabat EU numbering)
no binding: all assays above

B3: antibody 3C12 (antibody, human IgG1, V domains shown)
VH: B1 VH with E1Q, T30A, Y35N, E46D, T58S, Q62L, K63T, S77T
VL: DVVMTQTPKFLLVSAGDRVTITCKASQSVSNDVAWYQQKPGQSPKLLIYYASTRYTGVPDRFTGSGYGTDFTFTISTVQAEDLAVYFCQQDYSSLTFGAGTKLELKR
notes: Produced as chimeric human IgG1 with heavy chain N297Q (Kabat EU numbering); RTVAAP)
no binding: all assays above
